{"source": "paper PMC5951583", "origin": "cited, not measured here", "key": {"[1]": {"biological_target": "Syt-II luminal domain (Rattus norvegicus) (UniProt P29101)", "sequence (P29101 1-60)": "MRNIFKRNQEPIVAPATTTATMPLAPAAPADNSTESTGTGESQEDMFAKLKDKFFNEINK", "assay": "ITC"}, "[2]": {"biological_target": "Synaptotagmin-2 (Rattus norvegicus) (UniProt P29101)", "sequence (P29101 whole entry)": "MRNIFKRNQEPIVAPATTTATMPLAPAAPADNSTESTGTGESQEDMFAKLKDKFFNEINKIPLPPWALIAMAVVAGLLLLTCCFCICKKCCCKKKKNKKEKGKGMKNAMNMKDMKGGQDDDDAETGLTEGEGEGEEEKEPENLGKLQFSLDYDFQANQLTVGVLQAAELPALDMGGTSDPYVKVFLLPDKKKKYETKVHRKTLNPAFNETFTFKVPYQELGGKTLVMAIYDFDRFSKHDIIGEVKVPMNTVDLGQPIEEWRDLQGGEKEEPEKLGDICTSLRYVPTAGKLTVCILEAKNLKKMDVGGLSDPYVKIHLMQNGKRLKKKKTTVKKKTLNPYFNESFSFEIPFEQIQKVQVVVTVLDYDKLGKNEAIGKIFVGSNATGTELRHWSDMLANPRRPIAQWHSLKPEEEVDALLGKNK"}, "[3]": {"biological_target": "Synaptotagmin-2 (Rattus norvegicus) (UniProt P29101)", "assay": "SPR"}, "[4]": {"biological_target": "Syt-II (Rattus norvegicus) (UniProt P29101)", "sequence (P29101 whole entry)": "as above"}, "[5]": {"biological_target": "Synaptotagmin-2 (Rattus norvegicus) (UniProt P29101)", "assay": "ITC"}, "[6]": {"biological_target": "Synaptotagmin-2 (Rattus norvegicus) (UniProt P29101)", "remark": "listed apart in the source"}}, "note": "Like-named read-outs stand apart in the source and are kept apart here."}
{"substance": "BoNT/B HC (HCB) HC (from UniProt P10844)", "values": [{"measurement": "Kd", "setting": "[1]", "result": 34, "unit": "nM"}]}
{"substance": "BoNT/B (from UniProt P10844)", "values": [{"measurement": "Kd", "setting": "[2]", "result": 0.23, "unit": "nM"}, {"measurement": "Kd", "setting": "[3]", "result": 0.6, "unit": "nM"}, {"measurement": "Kd", "setting": "[4]", "result": 7, "unit": "nM"}]}
{"substance": "BoNT/B HC HC (from UniProt P10844)", "values": [{"measurement": "Kd", "setting": "[5]", "result": 34, "unit": "nM"}, {"measurement": "Kd", "setting": "[6]", "result": 7, "unit": "nM"}]}
